From patent US11813311B2, “Treatment and prevention of metabolic diseases” (Singapore Health Services PTE LTD., priority 2019, dated 2023)

T1: mouse Il11ra1 (Mus musculus, UniProt Q64385)
T1 sequence (Q64385 24-432): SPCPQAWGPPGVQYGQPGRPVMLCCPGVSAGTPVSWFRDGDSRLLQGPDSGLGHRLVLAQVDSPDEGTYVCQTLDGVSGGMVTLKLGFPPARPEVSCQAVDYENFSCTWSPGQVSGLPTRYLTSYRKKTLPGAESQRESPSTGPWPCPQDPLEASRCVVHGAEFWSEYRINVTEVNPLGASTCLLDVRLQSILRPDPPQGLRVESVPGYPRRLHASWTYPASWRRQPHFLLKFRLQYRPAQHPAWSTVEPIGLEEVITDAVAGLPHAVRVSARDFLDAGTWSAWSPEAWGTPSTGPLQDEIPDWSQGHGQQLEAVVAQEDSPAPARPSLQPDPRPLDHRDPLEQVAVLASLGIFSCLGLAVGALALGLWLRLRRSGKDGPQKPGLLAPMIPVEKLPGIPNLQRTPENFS


Legend:
MCD-fed db/db mice = assay: MCD-fed db/db mouse NASH model; type: in vivo
Procedure: FIGS. 20A to 20N. Therapeutic targeting of Il-11 inhibits and reverses NASH pathologies in preclinical models. (A) Schematic showing therapeutic use of X203 and X209 (10 mg/kg, biweekly) in HFMCD-fed mice for experiments shown in (B-E). X203, X209 or IgG isotype control were administered from week 6 to 10 of HFMCD diet. (B) Representative liver histological images (Masson's Trichrome staining; scale bars, 100 μm), (C) relative liver hydroxyproline content, (D) relative liver pro-inflammatory mRNA expression levels (n≥6/group) and (E) serum ALT levels. (F) Western blots of hepatic Erk activation status. (G) Schematic of X203 or IgG administration to MCD-fed db/db mice for experiments shown in H-N. Western blots of hepatic (H) Il-11 and Gapdh, (I) p-Erk and Erk. (J) Representative Masson's Trichrome images of liver from X203 or IgG-treated MCD-fed db/db mice (scale bars, 100 μm). The levels of (K) hepatic triglyceride, (L) relative liver hydroxyproline, (M) serum ALT, and (N) mRNA expression of liver pro-inflammatory markers (n≥5/group). (C-E,K-N) Data are shown as box-and-whisker with median (middle line), 25th-75th percentiles (box) and min-max percentiles (whiskers); two-tailed, Tukey-corrected Student's t-test. FC: fold change; NC: normal chow; HFMCD: high fat methionine- and choline-deficient; MCD: methionine- and choline-deficient.
Male BKS.Cg-Dock7m+/+LeprdbJ (db/db) mice on C57BL/6J genetic background were 12 weeks of age and at the hepatic steatosis stage when they were fed methionine- and choline-deficient diet (MCD, A02082002BRi, Research Diets) for 8 weeks; control mice were of the same genotype. Durations of diet and antibody therapies are described.
Mice were injected intraperitoneally with either antagonist anti-IL-11 antibody, antagonist anti-IL11RA antibody or an identical amount of IgG isotype control for the treatment durations outlined in the figures.

mouse Il11ra1 = target: T1, mouse Il11ra1; assay: Binding of X209 to mouse Il11ra1 (Octet); settings: Octet system
Procedure: Binding of X209 to human IL11RA was measured on Biacore T200 (GE Healthcare). X209 was immobilized onto an anti-mouse capture chip. Interaction assays were performed with HEPES-buffered saline pH 7.4 containing 0.005% P20 and 0.5% BSA. A concentration range (1.56 nM to 100 nM) of the analyte (human IL11 RA) was injected over X209 and reference surfaces at a flow rate of 40 μl min^−1. Binding to mouse Il11ra1 was confirmed on Octet system (ForteBio) using a similar strategy. All sensograms were aligned and double-referenced^4. Affinity and kinetic constants were determined by fitting the corrected sensorgrams with 1:1 Langmuir model. The equilibrium binding constant KD was determined by the ratio of kd/ka.

[1] = Blood pharmacokinetics and biodistribution of 125I-X209; type: in vivo, mouse
Procedure: C57BL/6J mice (10-12-weeks old) were retro-orbitally injected (left eye) with 100 μl of freshly radiolabeled ^125I-X209 (5 μCi, 2.5 μg) in PBS. Mice were anesthetized with 2% isoflurane and blood were collected at several time points (2, 5, 10, 15, 30 m, 1, 2, 4, 6, 8 h, 1, 2, 3, 7, 14 and 21 days) post injection via submandibular bleeding. For biodistribution studies, blood was collected via cardiac puncture and tissues were harvested at the following time points: 1, 4 h, 1, 3, 7, 14, 21 days post injection. The radioactivity contents were measured using a gamma counter (2480 Wizard2, Perkin Elmer) with decay-corrections (100× dilution of 100 μl dose). The measured radioactivity was normalized to % injected dose/g tissue.

mice with PDL = assay: Pancreatic duct ligation (PDL) model of pancreatic injury; type: in vivo, mouse; settings: 14 days
Source text: FIGS. 50A to 50C. Schematic, box plot and images relating to the effect of antagonism of IL-11 mediated signalling in a pancreatic duct ligation (PDL) model of pancreatic injury. (A) Schematic representation of experiment in which pancreatic injury is induced by PDL, and wherein mice are subsequently treated with neutralising anti-IL-11 RA antibody or IgG isotype control antibody. (B) Ligated lobe weight for mice treated with neutralising anti-IL-11 RA antibody or IgG isotype control antibody at 14 days. (C) Representative images of Masson's Trichrome staining of pancreatic tissue from mice treated with neutralising anti-IL-11 RA antibody or IgG isotype control antibody at 14 days.

ERK = ERK activation in HSCs (Western blot); type: cell-based, human; settings: HSCs, antibody 2 μg/ml
Procedure: Western blots were carried out on total protein extracts from HSCs and liver tissues. Both cells and frozen tissues were homogenized in radioimmunoprecipitation assay (RIPA) buffer containing protease and phosphatase inhibitors (Thermo Scientifics), followed by centrifugation to clear the lysate. Protein concentrations were determined by Bradford assay (Bio-Rad). Equal amount of protein lysates were separated by SDS-PAGE, transferred to PVDF membrane, and subjected to immunoblot analysis for the indicated primary antibodies. Proteins were visualized using the ECL detection system (Pierce) with the appropriate secondary antibodies.

Molecule | ALT levels (MCD-fed db/db mice) | hepatic Erk activation (MCD-fed db/db mice) | hepatic fibrosis (MCD-fed db/db mice) | hepatic inflammation (MCD-fed db/db mice) | hepatic steatosis (MCD-fed db/db mice) | Binding to mouse Il11ra1 (mouse Il11ra1) | liver uptake ([1]; 125I-X209, mice) | in vivo half-life ([1]; 125I-X209, retro-orbital injection, mice) | pancreatic fibrosis (mice with PDL) | reduction in pancreatic tissue associated with PDL (mice with PDL) | ERK phosphorylation downstream of all factors, including IL-11 (ERK)
X203: mouse anti-mouse IL-11 IgG (IgG1κ), neutralising; VH SEQ ID NO:22, VL SEQ ID NO:23 (antibody, V domains shown, Enx203 VH; Enx203 VL) VH: EVQLQQSGPELVKPGASVKIPCKASGYTFTDYNMDWVKQSHGKSLEWIGDINPHNGGPIYNQKFTGKATLTVDKSSSTAYMELRSLTSEDTAVYYCARGELGHWYFDVWGTGTTVTVSS VL: DIVLTQSPASLAVSLGQRATISCRASKSVSTSGYSYIHWYQQKPGQPPKLLIYLASNLDSGVPARFSGSGSGTDFTLNIHPVEEEDAATYYCQHSRDLPPTFGGGTKLEIK | lowering | inhibited | reduced | reduced | reduced |  |  |  |  |  | 
X209: mouse anti-mouse IL-11Rα IgG (IgG1κ), neutralising; VH SEQ ID NO:24, VL SEQ ID NO:25 (antibody, V domains shown, Enx209 VH; Enx209 VL) VH: QVQLQQPGAELVRPGSSVKLSCKASGYTFTNYWMHWLKQRPVQGLEWIGNIGPSDSKTHYNQKFKDKATLTVDKSSSTAYMQLNSLTSEDSAVYYCARGDYVLFTYWGQGTLVTVSA VL: DIVLTQSPATLSLSPGERATLSCRASQSISNNLHWYQQKSHEAPRLLIKYASQSISGIPARFSGSGSGTDFTLSFSSLETEDFAVYFCQQSYSWPLTFGQGTKLEIK |  |  |  |  |  | confirmed | good liver uptake | approximately 18 days | reduced pancreatic fibrosis | inhibited | abolished
